Assay: soluble on expression in E. coli; label from the status in PepcDB or PDB records

| Sequence | soluble on expression in E. coli |
| --- | --- |
| MSLEREKVELFKEVLKKLHKGEDVESLKKQFGELLSQIPPFEIPVIEQELLKSGEIDVRDIIKMCDLHVEFFRGAVSEAGREIEKLPNGHPLRTLYEENKQILKDAEALSLLASSMFSLPKDDPRRKQFYEKLVQHVSELHRIGLTHYTREEMLIFPYIERRGITAVPTVLWSKHDETRLKIRLLLNLLKKEESDERLKEEALELSRMLSDMVFRENNILYPTLKVLLTEGEWKAIKMLEKDIGYYKIEVTEEWETPEKPLLPHRNCLRRPIPFRGLGGSRHVYHLQIQEGHHHHHH | soluble |
| MSLASISLPVGGRLLPYELTGRPVPLKGRDAAAFPRVAFAAAHVVADPLADNDPWVTPAIDWERTLAFRHRLWDLGLGVAESMDTAQRGMGLGWPEARELIGRSLSEARGRSGALIACGAGTDHLVPGPNVTIDEILRAYESQIETIEAEGGRIILMASRALAAAAKGPEDYFRVYDRILSQVKEPVIIHWLGEMFDPALEGYWGNADHMAAMKTCLDVIEAHAAKVDGIKISLLSKKKEIVMRRQLPKGVRMYTGDDFNYAELISGDEEGYSDALLGIFDAIAPVASAALEALGGGRNGEFFELLDPTVPLSRHIFKAPTRFYKTGVVFLAYLNGLQDHFAMIGGQQSARSLVHLAELFRLADRAGVLQDPELAAGRMRRVLAVNGVAEGHHHHHH | soluble |
| MGSDKIHHHHHHMDHQMEDLLEHWLPLADDAWVLAVITHIQGSSYRKPGAMMLFHEFGQGAGILSGGCLEADLRRHAQNAMLSHQIGCVSYDATDESDASYRLGCGGKVDIMLIPLLKENHDLGLVDIVQAFRKGQSGFYQLPLVPAGSDARSYSAQFYSSENVPFATADFAKAGVLSQPSGDTLIIPIRPRFHLGIFGGGIDAKPVAAIAHSLGWQVSVFDSRTAYARTADFPHAHIVKQSPDDAAALIANLDCAVVMHHNLTLDAAALKVIQPFALKYVALLGPAHRRDKVLSIAALNVDSFSGFFSAPAGLALGGELPSAIALSILAQCHGVLHGAAFSTLDGMMP | not soluble |
| GMADPKELQDKFWKALKSDRTVMLGLDGVEDGHARPMTAQIEGDSGGPIWFFTSKDNALIAMLGQGRRVIGAFSSKGHDLFASISGSLREDTDPAVVDRLWNPYVAAWYEGGKDDPKLALLRLDADHAQIWLNGSSLLAGIKVLLGV | soluble |
| MIRVTIEREADGRIRAFTMEGHAHFAKRGQDIVCAGASAVSFGTINAIETLIGVSPHVSLGKDGGYLRCELPELEEAAAEKVQLLLEAMVVSLKTIERDYGTFIRVTSI | not soluble |
| MGSDKIHHHHHHMDKYLSANSLEGVIDNEFSMPAPRWLNTYPAGPYRFINREFFIIAYETDPDLLQAILPPDMELLEPVVKFEFIRMPDSTGFGDYTESGQVVPVRYKGEEGGFTISMFLDCHAPIAGGREIWGFPKKLAKPKLFVEEDTLIGILKYGSIDIAIATMGYKHRPLDAEKVLESVKKPVFLLKNIPNVDGTPLVNQLTKTYLTDITVKGAWTGPGSLELHPHALAPISNLYIKKIVSVSHFITDLTLPYGKVVADYLA | not soluble |
| MGSDKIHHHHHHMPLLDIRNLTIELDTPHGRVKALERVSLTLNPGEVHGLVGESGSGRTLLAKAILGIPGHNWTIQADRMMWDGQNLMDMSPSERRVLMGSEMAMIFQDPISSLDPAIAVGTQIIEAMPENKELPWWKRGSDKRKKAQQWLHKVGIKETQKIMSSYAWELSDGECQKVMIAIAVANQPRLLIADEPTNSMEVRTQAQIFRLLSKLNQLQNVSILLISHELETLSQWCDRLTVMYSGQVMESGVTSDVIANPYHPYTKALLDNIPDYSNPEHHKTMMQTLPGSAPALQHLPIGCRLGPRCPQAQKLCVNQPSLCHQKDRYFACHFPYHNEPCHEEPLTKS | not soluble |
| GDSTILKVLQSNIQHVQLYENPVLQEKALTCIPVSELKRKAQEKLFRARKLDKGTNVSDEDFLLLELLHWFKEEFFRWVNNIVCSKCGGETRSRDEALLPNDDELKWGAKNVENHYCDACQLSNRFPRYNNPEKLLETRCGRCGEWANCFTLCCRALGFEARYVWDYTDHVWTEVYSPSQQRWLHCDACEDVCDKPLLYEIGWGKKLSYIIAFSKDEVVDVTWRYSCKHDEVMSRRTKVKEELLRETINGLNKQRQLSLSESRRKELLQRIIVELVEFISPKTPRPGLEHHHHHH | soluble |
| MGSDKIHHHHHHMKTNLLNYDLQGLTRHFADMGEKPFRAKQVMRWMHQSGAQNFNEMTDLAKSLRHKLNEQAGIEIPKLMMSQKSSDGTRKWLLDVGTGNGVETVFIPESDRGTLCISSQVGCALECTFCSTGRQGFNRNLTAAEIIGQLWWANKAMGVTPKNERVISNVVMMGMGEPMANFDNVVTALSIMLDDHGYGLSRRRVTVSTSGMVPQMDRLRDVMPVALAVSLHASNDEVRNQIVPLNKKYPLKELMAACQRYLVKAPRDFITFEYVMLDGINDKAQHARELIELVTDVPCKFNLIPFNPFPNSGYERSSNENIRVFRDILQQAGFVVTVRKTRGDDIDAACGQLAGQVQDKTRRQQKWQQILIGQQG | not soluble |
| MSLTVNISYLTDMDGVLIKEGEIIPGADRFLQSLTDNNVEFMVLTNNSIFTPRDLSARLKTSGLEIPPERIWTSATATAHFLKSQVKEGTAYVVGESGLTTALHTAGWILTDANPEFVVLGETRTYSFEAITTAINLILGGARFICTNPDVTGPSPSGILPATGSVAALITAATGAEPYYIGKPNPVMMRSALNTIGAHSEHTVMIGDRMDTDVKSGLEAGLSTVLVRSGISDDAEIRRYPFRPTHVINSIADLADEGHHHHHH | soluble |
| MVIRVFIASSSGFVAIKKKQQDVVRFLEANKIEFEEVDITMSEEQRQWMYKNVPPEKKPTQGNPLPPQIFNGDRYCGDYDSFFESKESNTVFSFLGLK | soluble |
| MSLDRKLKGSVEEKTLEYLRKRPEIYMALSTGIVNLNGLAALISKENDGMNQLSIRSVLQKMIRDGLVSDYRKSTDDLLKRSKVTLQDKVSVITSRRKIDIDFLSVTFLTDSVVYIVDETRAKNIPKDALIERNVSLIHIFSPPEIVTTPGFAMNVVQRIYAANVNILQLISCSNETMIVVNRDDAISAYSALTSYEGHHHHHH | soluble |
| HHHHHHMAGMAMDLGGYLTRIGLDGRPRPDLGTLHAIVAAHNRSIPFENLDPLLGIPVADLSAEALFAKLVDRRRGGYCYEHNGLLGYVLEELGFEVERLSGRVVWMRADDAPLPAQTHNVLSVAVPGADGRYLVDVGFGGQTLTSPIRLEAGPVQQTRHEPYRLTRHGDDHTLAAQVRGEWQPLYTFTTEPRPRIDLEVGSWYVSTHPGSHFVTGLTVAVVTDDARYNLRGRNLAVHRSGATEHIRFDSAAQVLDAIVNRFGIDLGDLAGRDVQARVAEVLDT | soluble |
| MGSDKIHHHHHHMHRFKYDHPLDDGVRRRVMEELAALERRHHVRVLYACESGSRAWGFASPDSDYDVRFLYVHRPQWYLQVEPQRDVIELPLDDELDISGWELRKALQLLNRSNPTMFEWLQSPLVYRADEKAAAALRELMADFHSLGRCRWHYLSMARKNHRVHLQGETVRLKKYLYVLRPLLAVRWLDAGKGLPPMRFADLAAATVEDDGLAAEINHLLAIKMAAGEAQLGGRLPKLDAFIASMLAEPVPPLPGRHDGDVRRLDRLLQEWVMGSVREDGSAACEI | not soluble |
| LRSSSQNSSDKPVAHVVANHQVEEQLEWLSQRANALLANGMDLKDNQLVVPADGLYLVYSQVLFKGQGCPDYVLLTHTVSRFAISYQEKVNLLSAVKSPCPKDTPEGAELKPWYEPIYLGGVFQLEKGDQLSAEVNLPKYLDFAESGQVYFGVIAL | soluble |
| MPYIEKLELKGFKSYGNKKVVIPFSKGFTAIVGANGSGKSNIGDAILFVLGGLSAKAMRASRISDLIFAGSKNEPPAKYAEVAIYFNNEDRGFPIDEDEVVIRRRVYPDGRSSYWLNGRRATRSEILDILTAAMISPDGYNIVLQGDITKFIKMSPLERRLLIDDISGIAEYDSKKEKALEE | soluble |
| MSLSTIYDIAKHAGVSKSTVSRVLNNQANISEESRKKVLAAIDQLNYQPSKLARALTSSGFDAIMVISNRSTTTTTGNPFFSEIIQSISTQAELENFDLILQTAKNSEDELKKCLSKIQEKMIKGIIMLSSPADEDFFHQLDPYNIPIVVTGKVEGHYKNIYSVDTDNFGDSYALTKHLIKQGHQKIACIHAPLDYHVSIDRLAGFRSCLFDHQLDLRNDWIIDSGYSIEDSYKAALRLMEGPDKPTAVFATDDLKVLSIYKMAADKNLQIPTDFSVIGYNDKVASSFLSPPLTSIDIPINKLGKKATNLLFRLIHQDKNVPKTTIIQTEMIERESIQKINEGHHHHHH | not soluble |
| MGSDKIHHHHHHMTTINFLGGCREVGRSAVMVDGIMIDYGVKPSDPPEFPLNGLSPRAVILSHGHLDHIGVAPNLMYYDPEVILTPPSHELSMILLRDSMKIMHPPPFTKRELRQFESNIREVEYEEPITVGDYEVEFFNAGHIPGSASIHMRGDVNILYSGDIRLEETRLLEGANTDYPETDILIVESTYFGTEHPDRKELERAFVESVIDTLDMGGHAIIPAFAVGRTQEVLMILERYGITPYVDGMGKEVAQVIQRHPDFIRSPKELKRAVRNAIPVEWRQRERVLEEPSAVVTTAGMLNGGPAMFYISRLYNDEKSKILLTGYQVEGTNGDMALKTGMLNLGTRVVKLKMGVEQYDFSAHADDRQLKEYVKRVVDRGAEVVFTIHGEETEAFAEWIKDNIGVEAYAPKNGEIYVI | not soluble |
| MSYDVIVRNGLWFDGTGRPPQVRTLGIRDGVVATVSAKPLDETGCPEVIDAGGKWVVPGFIDVHTHYDAEVLLDPGLRESVRHGVTTVLLGMCSLSTVYSDAEDAADLFSRVEAVPRQFVLGALESRKTWSNPAEYVAAIDALPLGPNIASLLGHSDLRASVLGLDRATTRGVVPTDDELETMADRLDAALDAGMLGMSGMDAAIDKLDGDRFRSRALPSTFATWRERRRLIKVLRKRGRILQSAPNVAKAQEALNFFLESSSLFGRRRGVRMSLLVSADAKSSPGAARVIGMGTRLLNKTLDAKVRFQHLPVPFELYSDGIDLPVFEEFGAGTAALHLRDQLERNKLLADPEYRRRFRRSFDRRKLGPTLWHRDFHDATIVECPDESLIGKTFGRIADERGIHPLDAFLDVLVDNGEKNVRWTTIVANHRPKVLDQLANDPAVHMGFSDAGAHLRNMAFYNYPLRLLKRVRDAQLSGRPFLTTERAVYRLTAEVADWFGVDAGTLREGDRADFVVIDPNCLNSDVDAYHEETVPFYGGLSRMVNRNDDAVVATAVNGTVVFGKGEFRDGYGDTVKSGRYLRAGADSRLKTAVLEHHHHHH | not soluble |
| MARRNSSIKPVFCFFAEFCMVSTSLWMDTEILPEASALKGDVHCDVAVVGSGIAGLSTAYELSKRDQSVIVIDRKGIASGMTARTSAHLAPLCDDLMSEFRKLRGPEIAKLFYESQAAAVDRIEEIQASETIACDFRRLDGYLFQGHGMPADVLDEELEAVREVGAPVHRLVGVPLKGCENRHVLRYPRQATFHPLKYLAGVAAVCQTHGVRFFANSPVEEVAQGDGDVTLRTAQGQITAGNAVIATNASITDRYQLHSKVAPYRTYVLAFAIARGELPDALYWDTEDPYHYVRLQLGSDDHDVVLIGGEDHKSGEANDAEKRFAKLESWARELIPGLGRVTHRWSGQVLDTIDYAGFIGREPGSERIYLAMGDSGQGLTHGVMGAMLNTSLILGEHNPWSAVYAPGRTPLAAARNFLRENLTILQNLAEYVAPGEIASLEKIEPSEGAILRRGFEKIAAYRDKAGELHLHSASCTHIGCHLHWNSFETCWDCPCHGSIFAPNGQPINAPAVSALRPVKVLEHHHHHH | not soluble |
